According to PMC5098445 (mAbs, 2016):

Biological target: human insulin-like growth factor 1 receptor (Homo sapiens, UniProt P08069)
Assay: SPR

Chain of human insulin-like growth factor 1 receptor (P08069 31-1367): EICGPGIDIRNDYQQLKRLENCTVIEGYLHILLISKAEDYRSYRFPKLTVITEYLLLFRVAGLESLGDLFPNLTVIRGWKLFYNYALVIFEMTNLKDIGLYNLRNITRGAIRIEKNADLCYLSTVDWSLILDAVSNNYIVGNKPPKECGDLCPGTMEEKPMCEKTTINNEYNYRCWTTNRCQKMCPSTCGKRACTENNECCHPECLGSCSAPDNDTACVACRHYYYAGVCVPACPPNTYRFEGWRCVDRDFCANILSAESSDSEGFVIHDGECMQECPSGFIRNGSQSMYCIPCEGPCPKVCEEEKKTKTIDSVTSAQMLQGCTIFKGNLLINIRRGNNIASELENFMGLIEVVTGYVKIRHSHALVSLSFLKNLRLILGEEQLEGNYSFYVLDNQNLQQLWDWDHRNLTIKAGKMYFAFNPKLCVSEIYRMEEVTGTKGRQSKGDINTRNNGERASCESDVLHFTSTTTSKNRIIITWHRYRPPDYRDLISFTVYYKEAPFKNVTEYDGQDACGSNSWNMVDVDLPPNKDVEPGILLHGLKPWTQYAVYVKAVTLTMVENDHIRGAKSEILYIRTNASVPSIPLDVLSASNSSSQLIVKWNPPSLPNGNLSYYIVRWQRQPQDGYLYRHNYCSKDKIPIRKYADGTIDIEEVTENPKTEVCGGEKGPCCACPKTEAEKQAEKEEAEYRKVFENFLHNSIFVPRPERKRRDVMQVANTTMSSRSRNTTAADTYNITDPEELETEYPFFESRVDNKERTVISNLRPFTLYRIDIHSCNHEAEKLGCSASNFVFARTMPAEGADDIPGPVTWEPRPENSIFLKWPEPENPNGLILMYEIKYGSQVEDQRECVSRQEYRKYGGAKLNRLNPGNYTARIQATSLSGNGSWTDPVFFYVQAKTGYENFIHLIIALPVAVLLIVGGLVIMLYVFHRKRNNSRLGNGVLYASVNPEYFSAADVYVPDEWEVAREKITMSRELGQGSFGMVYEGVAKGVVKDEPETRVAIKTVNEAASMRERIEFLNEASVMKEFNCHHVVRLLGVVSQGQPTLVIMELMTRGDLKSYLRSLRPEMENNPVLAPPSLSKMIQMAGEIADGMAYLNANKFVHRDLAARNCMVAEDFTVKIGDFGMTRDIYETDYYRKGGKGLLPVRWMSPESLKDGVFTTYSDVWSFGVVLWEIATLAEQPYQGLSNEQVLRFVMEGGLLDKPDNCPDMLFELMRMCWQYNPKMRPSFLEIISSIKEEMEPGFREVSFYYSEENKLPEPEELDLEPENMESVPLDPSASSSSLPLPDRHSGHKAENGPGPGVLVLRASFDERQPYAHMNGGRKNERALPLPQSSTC

| binding result | Binder |
| --- | --- |
| binds | scFv of AK18 (IGF-1R-binding region) (scFv, V domains shown) VH: QVELVESGGGVVQPGRSQRLSCAASGFTFSSYGMHWVRQAPGKGLEWVAIIWFDGSSTYYADSVRGRFTISRDNSKNTLYLQMNSLRAEDTAVYFCARELGRRYFDLWGRGTLVSVSS VL: EIVLTQSPATLSLSPGERATLSCRASQSVSSYLAWYQQKPGQAPRLLIYDASKRATGIPARFSGSGSGTDFTLTISSLEPEDFAVYYCQQRSKWPPWTFGQGTKVESK |
| binds | scFv of F13B5 (IGF-1R-binding region) (scFv, V domains shown) VH: QVELVESGGGVVQPGRSQRLSCAASGFTFSSYGMHWVRQAPGKGLEWVAIIWFDGSSTYYADSVRGRFTISRDNSKNTLYLQMNSLRAEDTAVYFCARELGRRYFDLWGRGTLVSVSS VL: EIVLTQSPATLSLSPGERATLSCRASQSVSSYLAWYQQKPGQAPRLLIYQASKRATGIPARFSGSGSGTDFTLTISSLEPEDFAVYYCQQRSKYPPWTFGQGTKVESK |
